Laboratory results from the Human Domainome abundance scans (Beltran et al. 2025).
± gives the uncertainty stated by the source.

B1: Histone-lysine N-methyltransferase 2A, residues 1148 to 1194; numbered along this chain, Q03164 (parent)
chain: KGRRSRRCGQCPGCQVPEDCGVCTNCLDKPKFGGRNIKKQCCKMRKC

Variants of: B1
Test: abundance fitness (aPCA) (normalised: wild type 0, dead -1); higher = more abundant; growth selection in yeast, the domain comes from the species named
Settings: Homo sapiens

Variant | abundance fitness
P17L | -0.06 ± 0.091
P17C | -0.367 ± 0.12
P17E | 0.074 ± 0.11
P17W | -0.215 ± 0.094
P17S | 0.026 ± 0.091
P17N | -0.313 ± 0.23
P17M | -0.241 ± 0.13
P17A | -0.058 ± 0.096
P17I | -0.358 ± 0.2
P17D | -0.615 ± 0.2
P17T | 0.161 ± 0.12
P17K | 0.095 ± 0.12
P17V | -0.057 ± 0.087
P17Y | -0.485 ± 0.16
P17Q | -0.159 ± 0.11
P17F | -0.123 ± 0.11
P17G | -0.082 ± 0.084
D19H | -0.677 ± 0.28
D19Y | -0.859 ± 0.21
D19Q | -1.05 ± 0.19
D19A | -0.797 ± 0.11
D19G | -0.96 ± 0.13
D19E | -0.962 ± 0.15
D19P | -0.935 ± 0.16

Variant | abundance fitness
D19M | -0.339 ± 0.15
D19C | -0.977 ± 0.2
D19W | -0.861 ± 0.2
D19V | -0.901 ± 0.11
D19R | -0.775 ± 0.12
D19N | -0.624 ± 0.18
D19T | -0.865 ± 0.16
D19K | -0.898 ± 0.15
D19I | -1.24 ± 0.42
D19F | -1.02 ± 0.21
D19L | -0.878 ± 0.11
C20D | -0.782 ± 0.21
C20R | -0.654 ± 0.11
C20Y | -0.994 ± 0.15
C20W | -0.95 ± 0.14
C20S | -0.832 ± 0.12
C20F | -1.03 ± 0.2
C20M | -0.925 ± 0.17
C20A | -0.961 ± 0.13
C20I | -0.895 ± 0.23
C20P | -0.947 ± 0.21
C20K | -0.594 ± 0.15
C20N | -0.898 ± 0.23
C20T | -0.753 ± 0.13

Variant | abundance fitness
C20H | -0.97 ± 0.28
C20Q | -0.866 ± 0.17
C20E | -0.736 ± 0.16
V16P | -0.414 ± 0.12
V16I | -0.066 ± 0.14
V16C | -0.468 ± 0.15
V16N | 0.146 ± 0.18
V16R | 0.196 ± 0.08
V16E | -0.522 ± 0.11
V16Q | 0.223 ± 0.1
V16M | 0.159 ± 0.11
V16Y | -0.178 ± 0.17
V16T | 0.173 ± 0.11
V16W | -0.285 ± 0.11
V16S | -0.168 ± 0.087
V16L | 0.205 ± 0.077
V16G | -0.705 ± 0.1
V16A | -0.278 ± 0.1
V16K | 0.103 ± 0.13
V16H | -0.3 ± 0.15
V16D | -0.783 ± 0.17
Q15T | -0.244 ± 0.1
Q15G | -0.384 ± 0.088
Q15F | -0.54 ± 0.13

Variant | abundance fitness
Q15S | -0.313 ± 0.085
Q15M | 0.058 ± 0.11
Q15D | -0.463 ± 0.16
Q15V | -0.25 ± 0.089
Q15C | -0.37 ± 0.11
Q15P | -0.838 ± 0.14
Q15R | -0.19 ± 0.093
Q15A | -0.112 ± 0.089
Q15L | -0.049 ± 0.081
Q15W | -0.468 ± 0.11
Q15E | -0.103 ± 0.12
Q15I | -0.185 ± 0.16
Q15Y | -0.727 ± 0.15
Q15N | -0.392 ± 0.15
Q15H | -0.355 ± 0.18
G21D | -0.872 ± 0.15
G21W | -0.88 ± 0.15
G21N | -0.767 ± 0.27
G21Q | -0.918 ± 0.17
G21H | -0.375 ± 0.19
G21Y | -0.769 ± 0.19
G21C | -0.805 ± 0.16
G21R | -0.416 ± 0.09
G21F | -0.684 ± 0.2

Variant | abundance fitness
G21E | -0.677 ± 0.16
G21I | -0.995 ± 0.24
G21S | -0.542 ± 0.096
G21P | -0.857 ± 0.14
G21L | -0.626 ± 0.098
G21M | -0.278 ± 0.13
G21T | -0.894 ± 0.16
G21V | -0.7 ± 0.1
E18T | -0.164 ± 0.11
E18C | -0.485 ± 0.14
E18A | -0.089 ± 0.1
E18R | -0.049 ± 0.097
E18Y | -0.264 ± 0.15
E18W | -0.1 ± 0.12
E18M | -0.22 ± 0.14
E18G | -0.469 ± 0.097
E18P | -0.495 ± 0.14
E18K | -0.002 ± 0.14
E18N | -0.161 ± 0.17
E18H | -0.17 ± 0.15
E18I | -0.364 ± 0.14
E18Q | -0.177 ± 0.12
E18S | -0.092 ± 0.09
E18L | -0.213 ± 0.086

Variant | abundance fitness
E18D | -0.182 ± 0.15
E18V | -0.093 ± 0.091
V22Q | 0.079 ± 0.15
V22C | -0.311 ± 0.11
V22W | -0.246 ± 0.12
V22R | -0.021 ± 0.083
V22E | -0.158 ± 0.14
V22Y | -0.053 ± 0.1
V22L | -0.166 ± 0.081
V22F | -0.009 ± 0.11
V22K | -0.079 ± 0.14
V22M | -0.385 ± 0.11
V22N | -0.28 ± 0.12
V22D | -0.322 ± 0.14
V22G | -0.319 ± 0.09
V22P | -0.769 ± 0.12
V22H | -0.046 ± 0.13
V22S | 0.061 ± 0.079
C14W | -0.727 ± 0.12
C14N | -0.288 ± 0.18
C14L | -0.916 ± 0.11
C14A | -0.738 ± 0.11
C14T | -0.728 ± 0.14
C14Q | -0.183 ± 0.16

Variant | abundance fitness
C14I | -0.663 ± 0.18
C14R | -0.784 ± 0.089
C14M | -0.713 ± 0.17
C14S | -0.49 ± 0.096
C14G | -0.559 ± 0.088
C14P | -0.765 ± 0.16
C14V | -0.7 ± 0.12
C14Y | -0.554 ± 0.14
C14F | -0.913 ± 0.2
C14D | -0.779 ± 0.17
C23A | -0.675 ± 0.1
G13K | -0.678 ± 0.16
G13M | -0.381 ± 0.11
G13T | -0.455 ± 0.099
G13I | -0.606 ± 0.13
G13R | -0.719 ± 0.1
G13P | 0.152 ± 0.11
G13W | -0.708 ± 0.12
G13L | -0.445 ± 0.09
G13N | -0.266 ± 0.11
G13Y | -0.393 ± 0.11
G13Q | -0.068 ± 0.15
G13H | -0.884 ± 0.2
